Measured values reported in PMC6992768, “Loss-of-function mutations in UDP-Glucose 6-Dehydrogenase cause recessive developmental epileptic encephalopathy” (Nature Communications, 2020).

Molecular target: the molecule itself
Assay: SEC; analytical gel filtration of each apoprotein alone; 1x PBS with 1 mM DTT, 0.5 mL/min, Superdex gel filtration column, elution followed by A280; peaks compared with known hexamer, dimer and monomer elution times

B1: UGDH A44V (enzyme, human, UniProt O60701 1-494, looked up)
chain: MFEIKKICCIGAGYVGGPTCSVIAHMCPEIRVTVVDVNESRINVWNSPTLPIYEPGLKEVVESCRGKNLFFSTNIDDAIKEADLVFISVNTPTKTYGMGKGRAADLKYIEACARRIVQNSNGYKIVTEKSTVPVRAAESIRRIFDANTKPNLNLQVLSNPEFLAEGTAIKDLKNPDRVLIGGDETPEGQRAVQALCAVYEHWVPREKILTTNTWSSELSKLAANAFLAQRISSINSISALCEATGADVEEVATAIGMDQRIGNKFLKASVGFGGSCFQKDVLNLVYLCEALNLPEVARYWQQVIDMNDYQRRRFASRIIDSLFNTVTDKKIAILGFAFKKDTGDTRESSSIYISKYLMDEGAHLHIYDPKVPREQIVVDLSHPGVSEDDQVSRLVTISKDPYEACDGAHAVVICTEWDMFKELDYERIHKKMLKPAFIFDGRRVLDGLHNELQTIGFQIETIGKKVSSKRIPYAPSGEIPKFSLQDPPNKKPKV
notes: human UDP-glucose 6-dehydrogenase (UGDH) with the patient variant A44V, made from WT-UGDH pET28a; Germline variant found in patients (families 1, 11, 13); Eluted mainly as a dimer by gel filtration; also called p.A44V; p.Ala44Val
B1 was tested, and the “stoichiometry N” value was 2.

B2: UGDH T325D (enzyme, human, UniProt O60701 1-494, looked up)
chain: MFEIKKICCIGAGYVGGPTCSVIAHMCPEIRVTVVDVNESRINAWNSPTLPIYEPGLKEVVESCRGKNLFFSTNIDDAIKEADLVFISVNTPTKTYGMGKGRAADLKYIEACARRIVQNSNGYKIVTEKSTVPVRAAESIRRIFDANTKPNLNLQVLSNPEFLAEGTAIKDLKNPDRVLIGGDETPEGQRAVQALCAVYEHWVPREKILTTNTWSSELSKLAANAFLAQRISSINSISALCEATGADVEEVATAIGMDQRIGNKFLKASVGFGGSCFQKDVLNLVYLCEALNLPEVARYWQQVIDMNDYQRRRFASRIIDSLFNDVTDKKIAILGFAFKKDTGDTRESSSIYISKYLMDEGAHLHIYDPKVPREQIVVDLSHPGVSEDDQVSRLVTISKDPYEACDGAHAVVICTEWDMFKELDYERIHKKMLKPAFIFDGRRVLDGLHNELQTIGFQIETIGKKVSSKRIPYAPSGEIPKFSLQDPPNKKPKV
notes: human UDP-glucose 6-dehydrogenase (UGDH) with T325D, made from WT-UGDH pET28a
B2: binds.

B3: UDP-Glucose 6-Dehydrogenase (UGDH), wild type (enzyme, human, UniProt O60701 1-494, looked up)
chain: MFEIKKICCIGAGYVGGPTCSVIAHMCPEIRVTVVDVNESRINAWNSPTLPIYEPGLKEVVESCRGKNLFFSTNIDDAIKEADLVFISVNTPTKTYGMGKGRAADLKYIEACARRIVQNSNGYKIVTEKSTVPVRAAESIRRIFDANTKPNLNLQVLSNPEFLAEGTAIKDLKNPDRVLIGGDETPEGQRAVQALCAVYEHWVPREKILTTNTWSSELSKLAANAFLAQRISSINSISALCEATGADVEEVATAIGMDQRIGNKFLKASVGFGGSCFQKDVLNLVYLCEALNLPEVARYWQQVIDMNDYQRRRFASRIIDSLFNTVTDKKIAILGFAFKKDTGDTRESSSIYISKYLMDEGAHLHIYDPKVPREQIVVDLSHPGVSEDDQVSRLVTISKDPYEACDGAHAVVICTEWDMFKELDYERIHKKMLKPAFIFDGRRVLDGLHNELQTIGFQIETIGKKVSSKRIPYAPSGEIPKFSLQDPPNKKPKV
notes: human UDP-glucose 6-dehydrogenase (UGDH), codon-optimised E. coli expression construct WT-UGDH pET28a; also called UGDH^WT; WT-UGDH
B3: binds.

B4: UGDH ∆132 (enzyme, human, UniProt O60701 1-494, looked up)
chain: MFEIKKICCIGAGYVGGPTCSVIAHMCPEIRVTVVDVNESRINAWNSPTLPIYEPGLKEVVESCRGKNLFFSTNIDDAIKEADLVFISVNTPTKTYGMGKGRAADLKYIEACARRIVQNSNGYKIVTEKSTPVRAAESIRRIFDANTKPNLNLQVLSNPEFLAEGTAIKDLKNPDRVLIGGDETPEGQRAVQALCAVYEHWVPREKILTTNTWSSELSKLAANAFLAQRISSINSISALCEATGADVEEVATAIGMDQRIGNKFLKASVGFGGSCFQKDVLNLVYLCEALNLPEVARYWQQVIDMNDYQRRRFASRIIDSLFNTVTDKKIAILGFAFKKDTGDTRESSSIYISKYLMDEGAHLHIYDPKVPREQIVVDLSHPGVSEDDQVSRLVTISKDPYEACDGAHAVVICTEWDMFKELDYERIHKKMLKPAFIFDGRRVLDGLHNELQTIGFQIETIGKKVSSKRIPYAPSGEIPKFSLQDPPNKKPKV
notes: source: purified recombinant; expression not described for this mutant
B4: binds.
